Measured values from patent US10301203B2, “Chloroperoxidase-catalyzed degradation of pharmaceutical pollutants in wastewater” (THE FLORIDA INTERNATIONAL UNIVERSITY BOARD OF TRUSTEES, priority 2017, dated 2019).

Substrate: NC(=O)N1c2ccccc2C=Cc2ccccc21
Experiment: CPO-catalyzed degradation of carbamazepine, kinetic parameters (UV monitoring at 285 nm, CBZ concentration varied)
Assay type: biochemical, Caldariomyces fumago
Details: other: CBZ as substrate, 0.02 to 0.11 mM, CPO isolated from C. fumago (5 nM), 100 mM KH2PO4 buffer, 20 mM KCl, pH 2.75, H2O2 0.35 mM or 0.07 mM, absorbance at 285 nm, 0.1 to 0.2 mi
Description: Chloroperoxidase (CPO) is a heme-containing glycoprotein secreted by the fungus Caldariomyces fumago.
The isolation of CPO proposed in this study was a modification of the protocol reported by Morris and Hager (1966), using acetone instead of ethanol as the fractionation solvent. CPO with Rz=1.45 was applied in all reactions (Rz is the purity standard, defined as A398/A280=1.44 for a pure enzyme). All solvents were HPLC grade or Optima® LC/MS grade, purchased from Thermo Fisher Scientific Inc. (Waltham, Mass., USA). Water was produced using a Milli-Q® Biocel™ Ultra-Pure water purification system equipped with 0.22 μM membrane filter cartridge (EMD Millipore, Billerica, Mass., USA), and an organic removal cartridge (Evoqua Water Technologies, Lowell, Mass., USA).
The rate was calculated by monitoring absorbance at 285 nm from 0.1 to 0.2 min. The reaction was carried out in 100 mM KH2PO4 buffer with 20 mM KCl at pH 2.75, with the concentration of CBZ varying from 0.02 to 0.11 mM. UV monitoring was started immediately after adding 0.35 mM H2O2.
All experiments were triplicated and data reported were mean values of three independent measurements with standard deviation.
1 min. after addition of 5 nM CPO, the 285 nm absorption decreased, and stopped […] at 4 min. The 285 nm wavelength was used to measure kinetic parameters of CBZ degradation catalyzed by CPO.

B1: chloroperoxidase (CPO) (Leptoxyphium fumago) (protein)
chain: QEPGSGIGYPYDNNTLPYVAPGPTDSRAPCPALNALANHGYIPHDGRAISRETLQNAFLNHMGIANSVIELALTNAFVVCEYVTGSDCGDSLVNLTLLAEPHAFEHDHSFSRKDYKQGVANSNDFIDNRNFDAETFQTSLDVVAGKTHFDYADMNEIRLQRESLSNELDFPGWFTESKPIQNVESGFIFALVSDFNLPDNDENPLVRIDWWKYWFTNESFPYHLGWHPPSPAREIEFVTSASSAVLAASVTSTPSSLPSGAIGPGAEAVPLSFASTMTPFLLATNAPYYAQDPTLGPND
notes: heme-containing glycoprotein secreted by the fungus Caldariomyces fumago; made in house; host or cells: Caldariomyces fumago (natural producer, not recombinant)
Km: 73.35 µM
